Assay results reported in the supplement of paper PMC10567573.

B1: CLK3 (parent)
chain: FGEDYYGPSRSRHRRRSRERGPYR

Variants of: B1
Test: protein stability index of a GFP-peptide fusion (GPS, HEK-293T) (PSI 1-6); higher = more stable
Conditions: c terminus: a fixed tail appended
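Also: lentivirally expressed fusions sorted by FACS into six bins by GFP to DsRed ratio, PSI derived from sequencing read proportions per bin multiplied by bin number.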

For FGEEYYGPSRSRHRRRSRERGPYR [D4E], which protein stability index is on record?
The protein stability index was 3.79.

Which protein stability index does the source give for FGEIYYGPSRSRHRRRSRERGPYR [D4I] here?
The protein stability index was 3.86.

For FGERYYGPSRSRHRRRSRERGPYR [D4R], which protein stability index is on record?
Its protein stability index is 3.34.

For FGEWYYGPSRSRHRRRSRERGPYR [D4W], which protein stability index is on record?
Its protein stability index is 2.16.

For FGEQYYGPSRSRHRRRSRERGPYR [D4Q], which protein stability index is on record?
The protein stability index was 2.55.

For FGEVYYGPSRSRHRRRSRERGPYR [D4V], which protein stability index is on record?
Its protein stability index is 3.58.

Which protein stability index does the source give for FGECYYGPSRSRHRRRSRERGPYR [D4C] here?
The protein stability index was 2.81.

For FGEAYYGPSRSRHRRRSRERGPYR [D4A], which protein stability index is on record?
The protein stability index was 3.2.

With FGEKYYGPSRSRHRRRSRERGPYR [D4K] as the variant, how does the protein stability index read?
The protein stability index was 3.44.

For FGESYYGPSRSRHRRRSRERGPYR [D4S], which protein stability index is on record?
The protein stability index was 2.21.

Which protein stability index does the source give for FGELYYGPSRSRHRRRSRERGPYR [D4L] here?
The protein stability index was 2.5.

For FGEHYYGPSRSRHRRRSRERGPYR [D4H], which protein stability index is on record?
The protein stability index was 3.52.

For FGEYYYGPSRSRHRRRSRERGPYR [D4Y], which protein stability index is on record?
Its protein stability index is 3.63.

With FGENYYGPSRSRHRRRSRERGPYR [D4N] as the variant, how does the protein stability index read?
The protein stability index was 2.1.

For FGEFYYGPSRSRHRRRSRERGPYR [D4F], which protein stability index is on record?
The protein stability index was 3.2.

For FGEMYYGPSRSRHRRRSRERGPYR [D4M], which protein stability index is on record?
Its protein stability index is 2.29.

For FGEPYYGPSRSRHRRRSRERGPYR [D4P], which protein stability index is on record?
Its protein stability index is 3.59.

Which protein stability index does the source give for FGETYYGPSRSRHRRRSRERGPYR [D4T] here?
The protein stability index was 3.38.

Which protein stability index does the source give for FGEGYYGPSRSRHRRRSRERGPYR [D4G] here?
The protein stability index was 1.9.

For FGHDYYGPSRSRHRRRSRERGPYR [E3H], which protein stability index is on record?
Its protein stability index is 4.21.

Which protein stability index does the source give for FGCDYYGPSRSRHRRRSRERGPYR [E3C] here?
Its protein stability index is 3.26.

Which protein stability index does the source give for FGPDYYGPSRSRHRRRSRERGPYR [E3P] here?
Its protein stability index is 3.41.

For FGGDYYGPSRSRHRRRSRERGPYR [E3G], which protein stability index is on record?
The protein stability index was 2.27.

Which protein stability index does the source give for FGFDYYGPSRSRHRRRSRERGPYR [E3F] here?
Its protein stability index is 4.87.

For FGNDYYGPSRSRHRRRSRERGPYR [E3N], which protein stability index is on record?
Its protein stability index is 3.63.

For FGQDYYGPSRSRHRRRSRERGPYR [E3Q], which protein stability index is on record?
The protein stability index was 4.38.

Which protein stability index does the source give for FGTDYYGPSRSRHRRRSRERGPYR [E3T] here?
Its protein stability index is 3.75.

Which protein stability index does the source give for FGWDYYGPSRSRHRRRSRERGPYR [E3W] here?
The protein stability index was 3.63.

Which protein stability index does the source give for FGADYYGPSRSRHRRRSRERGPYR [E3A] here?
The protein stability index was 3.9.

For FGLDYYGPSRSRHRRRSRERGPYR [E3L], which protein stability index is on record?
The protein stability index was 4.43.

Which protein stability index does the source give for FGIDYYGPSRSRHRRRSRERGPYR [E3I] here?
The protein stability index was 4.08.

Which protein stability index does the source give for FGDDYYGPSRSRHRRRSRERGPYR [E3D] here?
Its protein stability index is 2.86.

With FGMDYYGPSRSRHRRRSRERGPYR [E3M] as the variant, how does the protein stability index read?
The protein stability index was 3.83.

Which protein stability index does the source give for FGRDYYGPSRSRHRRRSRERGPYR [E3R] here?
The protein stability index was 3.46.

With FGSDYYGPSRSRHRRRSRERGPYR [E3S] as the variant, how does the protein stability index read?
The protein stability index was 1.73.

Which protein stability index does the source give for FGKDYYGPSRSRHRRRSRERGPYR [E3K] here?
The protein stability index was 3.96.

With FGYDYYGPSRSRHRRRSRERGPYR [E3Y] as the variant, how does the protein stability index read?
The protein stability index was 4.08.

With FGVDYYGPSRSRHRRRSRERGPYR [E3V] as the variant, how does the protein stability index read?
The protein stability index was 4.08.

Which protein stability index does the source give for FFEDYYGPSRSRHRRRSRERGPYR [G2F] here?
The protein stability index was 3.98.

Which protein stability index does the source give for FTEDYYGPSRSRHRRRSRERGPYR [G2T] here?
Its protein stability index is 2.65.

Which protein stability index does the source give for FKEDYYGPSRSRHRRRSRERGPYR [G2K] here?
The protein stability index was 4.75.

With FPEDYYGPSRSRHRRRSRERGPYR [G2P] as the variant, how does the protein stability index read?
The protein stability index was 3.52.

With FAEDYYGPSRSRHRRRSRERGPYR [G2A] as the variant, how does the protein stability index read?
The protein stability index was 2.87.

Which protein stability index does the source give for FMEDYYGPSRSRHRRRSRERGPYR [G2M] here?
The protein stability index was 3.85.

For FWEDYYGPSRSRHRRRSRERGPYR [G2W], which protein stability index is on record?
Its protein stability index is 4.3.

For FSEDYYGPSRSRHRRRSRERGPYR [G2S], which protein stability index is on record?
Its protein stability index is 2.96.

With FDEDYYGPSRSRHRRRSRERGPYR [G2D] as the variant, how does the protein stability index read?
The protein stability index was 5.06.

With FIEDYYGPSRSRHRRRSRERGPYR [G2I] as the variant, how does the protein stability index read?
Its protein stability index is 1.99.

With FNEDYYGPSRSRHRRRSRERGPYR [G2N] as the variant, how does the protein stability index read?
The protein stability index was 4.4.

For FCEDYYGPSRSRHRRRSRERGPYR [G2C], which protein stability index is on record?
The protein stability index was 2.52.

Which protein stability index does the source give for FYEDYYGPSRSRHRRRSRERGPYR [G2Y] here?
The protein stability index was 4.01.

Which protein stability index does the source give for FHEDYYGPSRSRHRRRSRERGPYR [G2H] here?
The protein stability index was 2.5.

Which protein stability index does the source give for FQEDYYGPSRSRHRRRSRERGPYR [G2Q] here?
Its protein stability index is 2.49.

With FREDYYGPSRSRHRRRSRERGPYR [G2R] as the variant, how does the protein stability index read?
The protein stability index was 4.89.

With FEEDYYGPSRSRHRRRSRERGPYR [G2E] as the variant, how does the protein stability index read?
The protein stability index was 4.89.

For FLEDYYGPSRSRHRRRSRERGPYR [G2L], which protein stability index is on record?
The protein stability index was 3.38.

With FVEDYYGPSRSRHRRRSRERGPYR [G2V] as the variant, how does the protein stability index read?
Its protein stability index is 1.03.

Which protein stability index does the source give for AGEDYYGPSRSRHRRRSRERGPYR [F1A] here?
The protein stability index was 4.83.

Which protein stability index does the source give for CGEDYYGPSRSRHRRRSRERGPYR [F1C] here?
The protein stability index was 4.54.

For TGEDYYGPSRSRHRRRSRERGPYR [F1T], which protein stability index is on record?
The protein stability index was 5.16.

For PGEDYYGPSRSRHRRRSRERGPYR [F1P], which protein stability index is on record?
The protein stability index was 4.87.

For NGEDYYGPSRSRHRRRSRERGPYR [F1N], which protein stability index is on record?
The protein stability index was 4.44.

Which protein stability index does the source give for IGEDYYGPSRSRHRRRSRERGPYR [F1I] here?
Its protein stability index is 4.57.

Which protein stability index does the source give for WGEDYYGPSRSRHRRRSRERGPYR [F1W] here?
Its protein stability index is 4.57.

With HGEDYYGPSRSRHRRRSRERGPYR [F1H] as the variant, how does the protein stability index read?
Its protein stability index is 4.65.

For MGEDYYGPSRSRHRRRSRERGPYR [F1M], which protein stability index is on record?
Its protein stability index is 4.92.

Which protein stability index does the source give for EGEDYYGPSRSRHRRRSRERGPYR [F1E] here?
The protein stability index was 5.1.

For QGEDYYGPSRSRHRRRSRERGPYR [F1Q], which protein stability index is on record?
The protein stability index was 5.13.

With DGEDYYGPSRSRHRRRSRERGPYR [F1D] as the variant, how does the protein stability index read?
Its protein stability index is 5.21.

Which protein stability index does the source give for YGEDYYGPSRSRHRRRSRERGPYR [F1Y] here?
Its protein stability index is 3.36.

For KGEDYYGPSRSRHRRRSRERGPYR [F1K], which protein stability index is on record?
The protein stability index was 4.99.

For RGEDYYGPSRSRHRRRSRERGPYR [F1R], which protein stability index is on record?
The protein stability index was 5.35.

For VGEDYYGPSRSRHRRRSRERGPYR [F1V], which protein stability index is on record?
The protein stability index was 5.33.

Which protein stability index does the source give for SGEDYYGPSRSRHRRRSRERGPYR [F1S] here?
The protein stability index was 5.1.

With LGEDYYGPSRSRHRRRSRERGPYR [F1L] as the variant, how does the protein stability index read?
Its protein stability index is 4.08.

For GGEDYYGPSRSRHRRRSRERGPYR [F1G], which protein stability index is on record?
Its protein stability index is 4.79.

For FGEDCYGPSRSRHRRRSRERGPYR [Y5C], which protein stability index is on record?
The protein stability index was 4.48.

For FGEDTYGPSRSRHRRRSRERGPYR [Y5T], which protein stability index is on record?
Its protein stability index is 5.24.

Which protein stability index does the source give for FGEDEYGPSRSRHRRRSRERGPYR [Y5E] here?
The protein stability index was 4.86.

With FGEDNYGPSRSRHRRRSRERGPYR [Y5N] as the variant, how does the protein stability index read?
Its protein stability index is 4.51.

With FGEDKYGPSRSRHRRRSRERGPYR [Y5K] as the variant, how does the protein stability index read?
Its protein stability index is 5.11.

Which protein stability index does the source give for FGEDAYGPSRSRHRRRSRERGPYR [Y5A] here?
Its protein stability index is 3.53.

With FGEDIYGPSRSRHRRRSRERGPYR [Y5I] as the variant, how does the protein stability index read?
Its protein stability index is 4.44.

For FGEDVYGPSRSRHRRRSRERGPYR [Y5V], which protein stability index is on record?
Its protein stability index is 4.36.

For FGEDHYGPSRSRHRRRSRERGPYR [Y5H], which protein stability index is on record?
Its protein stability index is 4.64.

Which protein stability index does the source give for FGEDFYGPSRSRHRRRSRERGPYR [Y5F] here?
Its protein stability index is 3.11.

Which protein stability index does the source give for FGEDSYGPSRSRHRRRSRERGPYR [Y5S] here?
The protein stability index was 3.8.

For FGEDQYGPSRSRHRRRSRERGPYR [Y5Q], which protein stability index is on record?
The protein stability index was 4.7.

With FGEDRYGPSRSRHRRRSRERGPYR [Y5R] as the variant, how does the protein stability index read?
The protein stability index was 5.21.

For FGEDDYGPSRSRHRRRSRERGPYR [Y5D], which protein stability index is on record?
The protein stability index was 4.95.

For FGEDPYGPSRSRHRRRSRERGPYR [Y5P], which protein stability index is on record?
Its protein stability index is 4.3.

For FGEDGYGPSRSRHRRRSRERGPYR [Y5G], which protein stability index is on record?
The protein stability index was 4.

Which protein stability index does the source give for FGEDLYGPSRSRHRRRSRERGPYR [Y5L] here?
The protein stability index was 4.47.

Which protein stability index does the source give for FGEDMYGPSRSRHRRRSRERGPYR [Y5M] here?
The protein stability index was 3.5.
